Measured values taken from patent US8637043B2, “Compositions useful as ligands for the formyl peptide receptor like 1 receptor and methods of use thereof” (Chemocentryx, Inc., priority 2001, dated 2014).
“Also recorded” adds a separate entry of the source. Ends that are not written are not given here.

T1: human FPRL1 (Homo sapiens, UniProt P25090)
T1 construct: Full length cDNA encoding FPRL1 was cloned, using the polymerase chain reaction (PCR), from genomic DNA isolated from undifferentiated HL-60 cells; expressed in transfected cells; linearized FPRL1/pcDNA3.1, electroporation
T1 sequence (P25090 1-351): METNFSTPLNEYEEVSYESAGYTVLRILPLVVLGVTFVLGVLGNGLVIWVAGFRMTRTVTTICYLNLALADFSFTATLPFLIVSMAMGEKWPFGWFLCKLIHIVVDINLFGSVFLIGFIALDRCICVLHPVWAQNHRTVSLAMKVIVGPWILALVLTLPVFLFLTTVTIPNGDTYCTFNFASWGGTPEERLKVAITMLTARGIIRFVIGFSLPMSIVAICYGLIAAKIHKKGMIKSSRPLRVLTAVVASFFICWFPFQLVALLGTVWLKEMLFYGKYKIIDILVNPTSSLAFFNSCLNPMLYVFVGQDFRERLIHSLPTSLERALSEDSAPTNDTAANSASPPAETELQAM

T2: CCR1 (Homo sapiens, UniProt P32246)
T2 construct: full length cDNA encoding CCR1 was cloned by the polymerase chain reaction (PCR) from genomic DNA isolated from human peripheral blood cells; expressed in transfected cells; pcDNA3.1 vector)
T2 sequence (P32246 1-355): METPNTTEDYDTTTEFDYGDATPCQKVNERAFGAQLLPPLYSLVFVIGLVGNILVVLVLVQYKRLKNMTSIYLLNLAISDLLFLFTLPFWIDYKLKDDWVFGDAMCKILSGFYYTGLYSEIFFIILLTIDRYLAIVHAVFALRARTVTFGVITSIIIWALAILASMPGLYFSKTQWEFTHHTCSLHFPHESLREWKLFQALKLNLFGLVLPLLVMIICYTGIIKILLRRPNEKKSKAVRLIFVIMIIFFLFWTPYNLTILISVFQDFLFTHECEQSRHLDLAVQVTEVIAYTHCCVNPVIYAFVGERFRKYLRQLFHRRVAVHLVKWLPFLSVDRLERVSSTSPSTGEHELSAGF


How the values were obtained:
human FPRL1 = target: T1, human FPRL1; assay: Calcium flux in FPRL1-L1.2 transfectants; assay type: cell-based; details: for Designation and FPRL1 Activity: qualitative rating high, moderate, low, see Example 9; for Notes: activity: qualitative rating, Table 6; for calcium release / mobilization: FPRL1 expressing L1.2 cells
Procedure: (§1) Ca^2+ mobilization responses were performed using the intracellular ratiometric fluorescent dye, lndo-1. Cells were loaded with Indo-1/AM (3 μM; Molecular Probes, Eugene, Oreg.) in culture medium (45 min, 20° C., 10^7 cells/ml). After dye loading, cells were washed once with 10 ml PBS) and resuspended at 10^6 cell/ml in HBSS containing 1% FBS. Cytosolic [Ca^2+] release was determined using excitation at 350 nm using a Photon Technology International fluorimeter (excitation at 350 nm, ratioed dual emission at 400 and 490 nm).
The functional activities of CKβ8-1 (25-116) were investigated in human FPRL1-L1.2 transfectants and in native L1.2 cells. Stable expression of formyl peptide-like receptor 1 (FPRL1) in L.1.2 cell was obtained as follows. Full length cDNA encoding FPRL1 was cloned, using the polymerase chain reaction (PCR), from genomic DNA isolated from undifferentiated HL-60 cells. […] Twenty micrograms of the FPRL1/pcDNA3.1 construct were linearized by digestion with Bsm1 (New England Biolabs, Beverly, Mass.) and used to transfect the murine B cell line L1.2 as follows. Twenty five million cells were washed twice and resuspended in 0.8 ml of PBS. The cells were incubated for 10 min at room temperature with the linearized FPRL/pcDNA3.1 construct DNA and transferred to a 0.4-cm cuvette, and a single electroporation pulse was applied at 250 V, 960 μF. Electroporated cells were incubated for 10 min at room temperature and transferred to culture at 37° C. in RPMI supplemented with 10% FCS. Geneticin (G418) was added to a final concentration of 800 μg/ml 48 h posttransfection and the cells plated into 96-well plates at 25,000 cells/well. After 2-3 weeks under drug selection, stable geneticin-resistant FPLR1 expressing cells were assessed for their ability to mobilize Ca^++ in response to SHAAGtide or CKbeta 8-1 at concentrations of 1 to 1000 nM.
A calcium flux test was performed on these transfectants using the method described in Example 1.
Stable expression of human FPRL1 in L1.2 cells was obtained as in Example 6. Calcium flux tests were conducted on the transfectants using the method described in Example 1. Chemokines (CKβ8(1-99), CKβ8(25-99), CKβ8-1(1-116) and CKβ8-1(25-116), were prepared as in Example 1. W peptides 1 and 2 were obtained as in Example 6. In addition, and the following SHAAGtide sequences and truncated variants (prepared as in Example 8) were tested:
All ligands were added in a dose response manner and the peak calcium flux response determined.

CCR1 = target: T2, CCR1; assay: Intracellular calcium flux in HEK293-CCR1 transfectants; assay type: cell-based; details: 100 nM; for maximal receptor stimulation compared with leukotactin: same concentration of leukotactin; for calcium flux: HEK293-CCR1 transfectants
Procedure: The human recombinant chemokines, leukotactin, three known CKβ8 variants CKβ8(1-99), CKβ8(25-99), CKβ8-1(1-116) and a novel NH2-terminal truncated form of CKβ8-1, CKβ8-1 (25-116) were obtained from R&D Systems (Minneapolis, Minn.). CKβ8-1(25-116) was compared with the other three variants for the ability to elicit an intracellular calcium mobilization in stable human CCR1 transfected […] cells. Human HEK293-CCR1 cells were prepared using Fugena 6 (Roche, Ind.) following the manufacturer's protocol. The HEK-293 cell lines were maintained in DMEM with 10% FBS supplemented with 800 μg/ml G-418.
Stable expression of human chemokine receptor CCR1 in HEK293 cell was obtained as follows: full length cDNA encoding CCR1 was cloned by the polymerase chain reaction (PCR) from genomic DNA isolated from human peripheral blood cells. The PCR product was cloned into pcDNA3.1 (Invitrogen, Carlsbad, Calif.) using standard molecular cloning procedures and completely sequenced to confirm identity.
Two micrograms of the CCR1/pcDNA3.1 construct were used to transfect the HEK293 cells as follows. FuGENE:DNA complex was prepared by mixing 6.0 μl FuGENE 6 reagent (Roche Molecular Biochemicals, Calif.) and 2 μg CCR1/pcDNA3.1 in 100 ul of serum-free medium (Hyclone, Colo.). After incubating for 30 minutes at room temperature, the complex was added to a 60 mm culture plate containing 0.5-1×10^6 cells in 10 ml DMEM medium supplemented with 10% FBS (Hyclone, Colo.). After mixing, the cells were returned to the incubator to culture at 37° C. for two days. At 48 hours post-transfection, Genetinin (G418) (Mediatech, Herndon, Va.) was added at a final concentration of 800 ug/ml. The cells were then plated in 96-well plates at a concentration of 20,000 cells/well. After 2-3 weeks under G418 selection, stable geneticin-resistant CCR1 expressing cells were assessed for their ability to mobilize calcium in response to MIP-1α at a concentration of 1-500 nM.
as §1
With HEKCCR1-293 transfectants, CKβ8-1(25-116) and the other CKβ8 variants induced a rapid calcium flux at 100 nM.

| Molecule | Designation and FPRL1 Activity (human FPRL1) | Notes: activity (human FPRL1) | calcium flux (CCR1) | calcium release / mobilization (human FPRL1) | calcium release / mobilization (human FPRL1; listed as CKβ8(25-116)) | calcium release / mobilization (human FPRL1; listed as CKβ8(1-116)) | maximal receptor stimulation compared with leukotactin (CCR1) |
| --- | --- | --- | --- | --- | --- | --- | --- |
| CKβ8(25-99): known truncated CKβ8 variant, human recombinant chemokine from R&D Systems (protein, listed as Homo sapiens) RFHATSADCCISYTPRSIPCSLLESYFETNSECSKPGVIFLTKKGRRFCANPSDKQVQVCMRMLKLDTRIKTRKN |  |  | high calcium response; also recorded: lower |  |  |  | equivalent to those obtained with the same concentration of the CCR1 agonist, leukotactin |
| CKβ8-1(1-116): alternatively spliced form of CKβ8, 116 amino acids, human recombinant chemokine (protein, listed as Homo sapiens) RVTKDAETEFMMSKLPLENPVLLDMLWRRKIGPQMTLSHAAGFHATSADCCISYTPRSIPCSLLESYFETNSECSKPGVIFLTKKGRRFCANPSDKQVQVCMRMLKLDTRIKTRKN |  |  | lower | no activity |  | did not give significant mobilization |  |

More lines, main results first:

| Designation and FPRL1 Activity (human FPRL1) | Notes: activity (human FPRL1) | calcium flux (CCR1) | calcium release / mobilization (human FPRL1) | calcium release / mobilization (human FPRL1; listed as CKβ8(25-116)) | calcium release / mobilization (human FPRL1; listed as CKβ8(1-116)) | Molecule | maximal receptor stimulation compared with leukotactin (CCR1) |
| --- | --- | --- | --- | --- | --- | --- | --- |
| high | high |  |  |  |  | MLWRRKIGPQMTLSHAAG [SEQ ID NO: 1] |  |
| high | high |  |  |  |  | MLWRRKIGPQMTLSHAAY [SEQ ID NO: 6] |  |
|  |  | high calcium response | stimulated calcium release | induced calcium mobilization |  | CKβ8-1(25-116): novel NH2-terminal truncated form of CKβ8-1, SEQ ID NO: 16, human recombinant chemokine (protein, listed as Homo sapiens) MLWRRKIGPQMTLSHAAGFHATSADCCISYTPRSIPCSLLESYFETNSECSKPGVIFLTKKGRRFCANPSDKQVQVCMRMLKLDTRIKTRKN | equivalent to those obtained with the same concentration of the CCR1 agonist, leukotactin |
